In one series the test system is A2780 sublines. The series can be described thus: Tumor growth in xenograft mouse model. It counts as in vivo, Athymic nu/nu mice. To be noted: subcutaneous A2780 sublines; DOX 2 mg/ml in drinking water from inoculation or 12 days after; FIG. 3. From the text: siRNA technology was .used to knock down the expression of PTB in tumor cells and to examine the effects of such manipulations on cell growth and malignant properties. Three siRNA (PTBsi1, PTBsi2, and PTBsi3) sequences targeting different regions of PTB mRNA were used. A siRNA can be generated as described in PCT/US2007/007352, which is herein fully incorporated by reference. Each of PTBsi1, PTBsi2, and PTBsi3 may be generated in a cell from a shRNA, which is formed after transcription of its coding sequence. The annealing of two oligonucleotides generates a DNA fragment with protruding ends compatible with Hind III and Bgl II restriction enzyme sites respectively. The coding sequences for each siRNA were cloned individually into a lentiviral vector downstream of H1 promoter and tetO element and thus the expression of these siRNAs is under control of doxycycline (DOX) (i.e. induced by DOX). We established several stable sublines carrying these expression cassettes. […] We have also examined whether knockdown of PTB could influence ovarian tumor cell growth in xenograft mouse model. […] Invasive cells were counted under microscope with high magnification (150×). […] Tumor sizes were measured in long and short dimensions every three or four days. Tumor size was calculated with formula axb2/2, where a=long dimension and b=short dimension. […]

The next series has as its system PTB. The series can be described thus: Gene expression profiling, Affymetrix HG-U133 plus 2 oligonucleotide arrays. It counts as cell-based. To be noted: A2780/PTBsi3 cells treated with DOX. The method, then: Microarray analyses of genome-wide splicing patterns and gene expression profiling were performed in A2780/PTBsi3 cells with or without PTB knockdown. Gene expression profiling was assessed using Affymetrix HG-U133 plus 2 oligonucleotide arrays, and the splicing pattern was assessed by Jivan Biologics' splicing-sensitive microarrays. The former analysis was done three times and the latter was done twice with total RNAs isolated from separate experiments. We also examined the gene expression profile once in the control subline, A2780/LUCsi, grown with or without DOX.
However, in A2780/PTBsi3 cells treated with DOX (i.e. PTB knockdown), 52 genes were found consistently changed more than 2-fold in all three separate experiments. […] In total, we found 50 genes whose expression was regulated by PTB. […] We have validated these changes in a few of these genes (INHBE, CDC42, PTBP2 and PKP4) by real-time PCR or conventional RT-PCR.

B1: PTBsi1: siRNA targeting PTB mRNA, DOX-induced, generated in a cell from shRNA1 (SEQ ID NO: 1 and 2) (nucleic acid)
chain 1: GATCCCCAGGTGACAGCCGAAGTGCATTCAAGAGATGCACTTCGGCTGTCACCTTTTTTGGAAA
chain 2: AGCTTTTCCAAAAATGCACTTCGGCTGTCACCTTCTCTTGAAAGGTGACAGCCGAAGTGCAGGG
Consider B1, for which the tumor growth entry in the series with A2780 sublines was “grew slower”.

B2: PTBsi3: siRNA targeting PTB mRNA, DOX-induced, generated in a cell from shRNA3 (SEQ ID NO: 5 and 6) (nucleic acid)
chain 1: GATCCCTGACAAGAGCCGTGACTACTTCAAGAGAGTAGTCACGGCTCTTGTCATTTTTGGAAA
chain 2: AGCTTTTCCAAAAATGACAAGAGCCGTGACTACTCTCTTGAAGTAGTCACGGCTCTTGTCAGGG
For B2, the tumor growth entry with A2780 sublines is given as “grew slower”. Further, in the series with PTB (all three experiments), the PTB downregulation entry was “about 4 fold”. Besides, the “genes consistently changed more than 2-fold” value in the series with PTB (three separate experiments, signal intensity cutoff 200) is 52 genes.

The values are drawn from patent US20100144838A1, “Methods for Identifying Modulators of Pyrimidine Tract Binding Protein” (priority 2008, published 2010).
